The source of these data is PMC5441850, “Waxy and non-waxy barley cultivars exhibit differences in the targeting and catalytic activity of GBSS1a” (Journal of Experimental Botany, 2017).

Numbering of substitutions follows the chain as printed. Numbers in names are those of the source.

Substrate in this data set: Nc1ncnc2c1ncn2[C@@H]1O[C@H](COP(=O)(O)OP(=O)(O)O[C@H]2O[C@H](CO)[C@@H](O)[C@H](O)[C@H]2O)[C@@H](O)[C@H]1O
The experiment in a line: purified protein. Particulars: rabbit liver glycogen 1 mg/ml as acceptor, 50 mM Bicine pH 8.5, 25 mM potassium acetate, 2 mM MgCl2, 10 mM DTT, 37 °C. The data set is classed as biochemical, Hordeum vulgare.

B1: HvGBSSIa (Hordeum vulgare; D287V/I559V/M558V) (protein)
chain: SATGSGMNLVFVGAEMAPWSKTGGLGDVLGGLPPAMAANGHRVMVVSPRYDQYKDAWDTSVISEIKVADEYERVRFFHCYKRGVDRVFIDHPWFLEKVRGKTKEKIYGPDAGTDYEDNQQRFSLLCQAALEAPRILNLNNNPYFSGPYGEDVVFVCNDWHTGLLACYLKSNYQSNGIYRTAKVAFCIHNISYQGRFSFDDFAQLNLPDRFKSSFDFIVGYDKPVEGRKINWMKAGILQADKVLTVSPYYAEELISGEARGCELDNIMRLTGITGIVNGMDVSEWDPTKDKFLAVNYDITTALEAKALNKEALQAEVGLPVDRKVPLVAFIGRLEEQKGPDVMIAAIPEILKEEDVQIILLGTGKKKFEKLLKSMEEKFPGKVRAVVRFNAPLAHQMMAGADLLAVTSRFEPCGLIQLQGMRYGTPCVCASTGGLVDTIVEGKTGFHMGRLSVDCNVVEPADVKKVATTLKRAVKVVGTPAYQEMVKNCVVQDLSWKGPAKNWEDVLLELGVEGSEPGIVGEEIAPLAMENVAAP
notes: initial 69 residues (plastid transit peptide) removed; codon-optimized, pET28a 6xHis tag; E. coli Tuner(DE3); HisTrap and Superdex75; mature size 59 kDa; CDC Alamo allele entry AF486519
Take B1: the Km is on record as 51 ± 10 µM and the kcat worked out at 0.00933 ± 0.0005 s⁻¹.

B2: HvGBSSIa (Hordeum vulgare; D287V) (protein)
chain: B1 chain with V489M, V490I
notes: as for B1
On to B2, for which the Km amounted to 127 ± 9 µM and the kcat was 0.046 ± 0.001 s⁻¹.

B3: HvGBSSIa (Hordeum vulgare; I559V/M558V) (protein)
chain: B1 chain with V218D
notes: as for B1
Turning to B3, the Km came to 56 ± 8 µM and the kcat turned out to be 0.0157 ± 0.00067 s⁻¹.

B4: HvGBSSIa (Hordeum vulgare; M558V) (protein)
chain: B1 chain with V218D, V490I
notes: as for B1
For the protein B4, the Km is recorded as 71 ± 7 µM and the kcat was determined as 0.353 ± 0.01 s⁻¹.

B5: HvGBSSIa (Hordeum vulgare) (protein)
chain: B1 chain with V218D, V489M, V490I
notes: as for B1
B5: the Km is 160 ± 15 µM and the kcat turned out to be 0.0967 ± 0.0033 s⁻¹.

B6: HvGBSSIa (Hordeum vulgare; I559V) (protein)
chain: B1 chain with V218D, V489M
notes: as for B1
In the case of B6, the Km is 114 ± 15 µM and the kcat came out at 0.112 ± 0.005 s⁻¹.
